This note sets out measurements from the DeepSol protein solubility set.

This data set is described as follows: soluble on expression in E. coli; label from the status in PepcDB or PDB records.
For “MSQEIRQNEKISYRIEGPFFIIHLINPDNLNALEGEDYIYLGELLELADRNRDVYFTIIQSSGRFFSSGADFKGIAKAQGDDTNKYPSETSKWVSNFVARNVYVTDAFIKHSKVLICCLNGPAIGLSAALVALCDIVYSINDKVYLLYPFANLGLITEGGTTVSLPLKFGTNTTYECLMFNKPFKYDIMCENGFISKNFNMPSSNAEAFNAKVLEELREKVKGLYLPSCLGMKKLLKSNHIDAFNKANSVEVNESLKYWVDGEPLKRFRQLGSKQRKHRL”, the “soluble on expression in E. coli” value is listed as “soluble”. For “MKTFPVSIVTPDGPVYEKEVEMVSVKAESGEMGILPGHIPTVAPLKISAVRLKNGGHTDYVAVSGGFIEVRPDKVTVLSSSAEEANHIDIHRANEAKRRAEQRMQDKQAHVDFKRAEMALQRAVNRLNVSDMK”, the “soluble on expression in E. coli” value is listed as “not soluble”. “MSSSQVVRDSAKKLVNLLEKYPKDRIHHLVSFRDVQIARFRRVAGLPNVDDKGKSIKEKKPSLDEIKSIINRTSGPLGLNKEMLTKIQNKMVDEKFTEESINEQIRALSTIMNNKFRNYYDIGDKLYKPAGNPQYYQRLINAVDGKKKESLFTAMRTVLFGK”: the “soluble on expression in E. coli” value is recorded as “not soluble”. For “MSLNIHIHSMTGFANAAAECGSKRINLDIRAVNHRFLDIQIRMPDDLRYLESGIREKISSHIARGKVECKIQIQDTENSRQSLELNSDLVNQLAEINKNLRKHHDLAKLGVADILRFPGVLASQRENTEELAKSITELTEKALKDFTAARRREGKKLGEHLLQRLESMEEIIDALSELFPTLLETHKEKIRARLVEAVGDINNDRLQQEFALFIQKSDIDEEFSRLRTHIAEVRRIVTEHKGSSGKRLDFLMQELNREANTLGSKSIAAECTQASVELKVLIEQMREQVQNIEEGHHHHHH” the value was “soluble”.

Turning to “LSCLTPDNKPGKCVNIKKCTHLAEIEEDPIGEDETTYLKNSVCAGPEDNSVCCG”, the “soluble on expression in E. coli” value is recorded as “soluble”. For “MAVIRIKKPRGPGEKDQPLEGEPKLKRIRIKTKVTDEDIKPKPKLKINLKKKKESADGKEKKNSLKLKLNLKKNEEPVKKIHKAPKLRLKPIRIPGEAYDSEASDIEDDPLIESGVILRILPDIQLEFVKNSLESGDYSGISIKWKNERHAVVTINDVMYGAILVDLPTVIEVNKSVDRKNLLKTFDVSQMLLCIRPIQEEEEVYALEAPDTEDLVVKHFEGIEDEIWENKETFLKGYNGAPLSDMEAKHLKEIALKGYDYKHGISPPLYNVRNRRFRRKMDPNEIDYVEKVVDMLLKQDKQAEEVSYDLVDKSELQARQERVSSWENFKEEPGEPLSRPALKKEEIHTIASAVGKQGAEEEGEEGMEEEEEEDLDLGAAFESEEEGSGAEGDKEQQQEEVGDEVDQDTGGEDDDDDDDGDIEAAGGESESDDEKDENRQHTELLADELNELETTLAHTKHKLSKATNPLLKSRFIDSIKKLEKEAELKRKQLQQTEDSVQKQHQHRSDAETANNVEEEEEEEEEEEEEDEVDEDEEDDEENDEDEDNVHEREHIQENKVVRELDEAPAEETLDQNDLDMMMLFGAEGDE” the value was “not soluble”; for “MAHHHHHHMLRHCIPRLGIAKTVIKDNYSLSTLTNGLRVLTCDDGNGVTGMGLFMLNGAKFESPDNAGAAAVFEALPLRDNQIYTSREISQALSGLGNAFKVTNNKEALSVILMLPRYHQRDGLELLNAMCLHPTRNEEEFRIAKEKTHERTLLYDRDATSVCFELVHEAGWNGKGLGHSLNPKKEELDKLTLEKFTAFHSACTRPERTVLAATGVADHKSFAEEVEKLLRFNNADVAVQAMPQLQPGYYPYTGGSRLVHRTEAPESVNKFQEKSLSHVALFFQGVPINHPDYYNISVIQTLLGGGTSFSSGGPGKGMQTKLFREVLNREGFLHGLECITAWYSDGGLFGLYGTAPHQAVVSLLNVMIYQAASICQRVSPTHLEMAKNQLRSQLILLGEGREQLLSDMGFNLVVHNHIITATETMEGTRNITLDDLKRVCADMIKKPLTFTVYGDTTKMPSHESLEETVRKTYEKLN”, “not soluble”. For the sequence “MAAQRIRAANASGLPRCKSEGTLIDLSEGFSETSFNDVKVPSPSALLVDNPTPFGNAKEVIAIKDYCPNNFTTLKFSKGDHLYVLDTSGGEWWYAHNTTEMGYIPSSYVQPLNYRNSTLSDSGMIDNLPDSPEEVAKELDLLGGGWTDDQKESGRPYSNNPFWNGVRTNPFLNGNAQPSTDELNPKSTVDLLLFDTGTSSFTESSSATTNSTGNIFDELPATNGLQVEQPVKRDNPFFRSKRSYSLSELSVLQAKSDAPPTSSFFTGLKSPVPEQFQSREDFRTAWLNHRKLARSCHDLDLLGQSPGWGQTQAVETNIVCKLDSSGGSVQLPDTNISIHVPEGHVAPGETQQISMKALLDPPLDLNSDRSTSVSPVVEVKLSNLEVSTFIILEMKVSAEVKGDIFSKSTVVLQCLRSDSKEGPYVPIPLAYSYGDTIQVQLDNLEPCMYLAIVAQGPNILYPSTVWDFINKRVTVGLYGPKHIHPSFKTVVTIFGHDCAPKTLLVSEVTRQAPSPAPVALQLWGKHQFILSRPQDLRVCMFSNMTNYEVKANEQARVVRGFQMKLGKVSRLIFSVISQNPNELSDFTLRVQVKDDQDTILTQFCVQTPQPPPKSAIKPSGQRRFLKKNEVGKIILSPFVVTTKYPTFQDRPVSSLKFGKLLKTVVRQNKSHYLLEYKKGDVVALLSEERIRLKGQLWTKEWYIGYYQGKVGLVHTKNVLVVGKARPSLFSGPELSTSVLLEQILRPCKFLTYIYASVRTLLMENISSWRAFADALGYGNLPLTFFCRAELDSEPERVASVLEKLKEDCNNPDNKDRKSFQKELVMALLKMDCQGLVVRLIQDFVLLTTAVEVAQRWRELAEKLAKVSKQQMDAYESPHRDRNGVVDSEAMWKPAYDFLLTWSHQIGDSYRDVIQELHIGLDKMKNPITRRWKHLTGTLILVNSLDILRAAAFSPADHDDFVI”, the “soluble on expression in E. coli” value is on record as “soluble”. Regarding “MGSDKIHHHHHHMVKLKPKGPFTRIPRATTIFGAISNAIRLLYGRKEVEKFIAGFINDDAKITSAFPYDGETYFLPKPLSVDLVVKTLFETKKEDVKKVKKKDYIPLESFEKALRLEEFEVKELPYKVIELPKVSLDRVSNDSSLYFWDLVTFKENSGLYFLYDGSNKLFEKYIVPAMRLLEDQGIGGKGTWGYGLFEVEIEELEIEEPRENSYVTLSPFVPENETSLILWKIVKLGGWSQGKRRPKIPMVVEGSLSREDRGKMITLDLSLSYPVYVYARSFLVRASLPEEAVGHV”, the “soluble on expression in E. coli” value is on record as “not soluble”.

Consider “MSDPRPARAVVVGIDGSRAATHAALWAVDEAVNRDIPLRLVYVIDPSQLSAAGEGGGQSAARAALHDASRKVEATGQPVKIETEVLCGRPLTKLMQESRSAAMLCVGSVGLDHVRGRRGSVAATLAGSALCPVAVIHPSPAEPATTSQVSAVVAEVDNGVVLRHAFEEARLRGVPLRAVAVHAAETPDDVEQGSRLAHVHLSRRLAHWTRLYPEVRVDRAIAGGSACRHLAANAKPGQLFVADSHSAHELCGAYQPGCAVLTVRSANL”, for which the “soluble on expression in E. coli” value is given as “not soluble”. For “KNKTIEVYVDRATLPTIQQMTQIINENSNNKKLISWSRYPINDETLLESINGSFFKNRPELIKSLDSMILTNEIKKVIINGNTLWAVDVVNIIKSIEALGKKTEIELNFYDDGSAEYVRLYDFSRLPESEQEYKISLSKDNIQSSINGTQPFDNSIENIYGFSQLYPTTYHMLRADIFETNLPLTSLKRVISNNIKQMKWDYFTTFNSQQKNKFYNFTGFNPEKIKEQYKASPHENFIFIGTNSGTATAEQQIDILTEAKKPDSPIITNSIQGLDLFFKGHPSATYNQQIIDAHNMIEIYNKIPFEALIMTDALPDAVGGMGSSVFFSLPNTVENKFIFYKSDTDIENNALIQVMIELNIVNRNDVKLISDLQ” the value was “soluble”; for “SGPLRDKVVIFIYWRENDLSIYLDLSGEPISRHGYRLNPWKAPMAETLAAGVIITSEWNPTTPFINPMCGSGTLAIEAALIGTHKIPGLVREDYAFQHIHGYVAETWKTMREMAQQKVLPALPFKIIASDHDQRALDAAKVNAEKAGVDHLIDFVLSDFQDTPVEENQAGVVILNPEYGERLGDEESLVLTYKEIGDFFKQKCGGYKGFVFTGNLELAKRIGLKPKRKIKFFSAKIECRLMQYELYSGTKRVVFKTE”, “not soluble”; for “MDMNVEIFAGIVNNPLTKKALRNLSGSCKTCGDKRIKIAIDYALGYRSDACWKCRAAAKVVKKVIEAGGRAFNVDMNEIREKFRDAYWRKGLASVIKGIAHFGVRKPFVPGAPFQVVWDITYSCNLRCKHCYATAGKPLQDELTTDEALETIDKLDRLGVTIIAFSGGEPLVRRDIFELTRYAAEKGIYVAIATNGTLITEEIAKRMKENGVGYVQISLDGMKETHEAFRGIRGCFDKTVEGIRNAVKTGLFVNVSMTVTRYNYHEVPKVVELCEKLGVNWFMHYNFIPTGRGREIVEADITPEQREELLKWLYEKNYSSNISLLSTAPQFARVALQCQGEIVPTHFYNVNAGERLKELAEFIGGCGAGRFYFAIKANGDIQPCVFFPLKVGNVREDDLEELWLHNHVFEDLRDKDILEGCGSCGYRYVCGGCRARAYNYFGDYTKPDPGCVNNRRWWERISKIEVRA”, “not soluble”. As for “MQKYTIVDLNEKAEAELAAIAGELGIANAGSMPKQELIYKILDEQAISVAGVRKEKQKTTEDRHTERRKPGRPRKNAEEEAPESEDVAAAPAEPNDEEAQAKRKRGRPRKAAEEIAEETREDVQQLVALAAAEETNATEKESAGRKPAAKTSTASPAKAPAKALPRPAETTPRVAPSPPPTTPVSEPAKDDAKPETPAPPPAIESITTTPAAGAVDEGGARRLVFRHKNSSSVLDQVLPYSSPQPPQRPKPAGAPVGSSPIRQRQAAGVPTPRREPQQPLYNFDGILECM”, the “soluble on expression in E. coli” value is listed as “not soluble”. To “YRDINEIDINMNDPLFTKQWYLINTGQADGTPGLDLNVAEAWELGYTGKGVTIGIMDDGIDYLHPDLASNYNAEASYDFSSNDPYPYPRYTDDWFNSHGTRCAGEVSAAANNNICGVGVAYNSKVAGIRMLDQPFMTDIIEASSISHMPQLIDIYSASWGPTDNGKTVDGPRELTLQAMADGVNKGRGGKGSIYVWASGDGGSYDDCNCDGYASSMWTISINSAINDGRTALYDESCSSTLASTFSNGRKRNPEAGVATTDLYGNCTLRHSGTSAAAPEAAGVFALALEANLGLTWRDMQHLTVLTSKRNQLHDEVHQWRRNGVGLEFNHLFGYGVLDAGAMVKMAKDWKTVPERFHCVGGSVQDPEKIPSTGKLVLTLTTDACEGKENFVRYLEHVQAVITVNATRRGDLNINMTSPMGTKSILLSRRPRDDDSKVGFDKWPFMTTHTWGEDARGTWTLELGFVGSAPQKGVLKEWTLMLHGTQSAPYIDQVVRDYQSKLAMSKKEELEEELDEAVERSLKSILNKN” belongs “soluble”; to “MRRLPPWMLGGASTGEAAARNGSQPEAPKTKAEKRPKRVQKTKEKDLNLKSDEPKRVPRKIREEAKRSPEVIQSVTVPEDDDLTVDDLLSFANEYVQRDEEGTRKERERSLSVSETTLVLDETNMTTSSQGGTKDSTAEDMLQLLMGPFYKKR”, “soluble”; to “MGITLGKKQLNKGRVSLYLNYSYNGKRRKEYLGIILDAPTSAERRAENRNKVLIARQIKAKKELEFLSVEYHLNDIENTFDDILPTDKSNVPDFYILIGQYLDTYHKKDKKMVRACITHLRLFTRKKSLPITLLTKDFCINFLEYLRDHLRGNTPIGYFKKFKMCINKCIEKKLMTSNPTDGIRLMQFDEVTKAILSLKEIQKLAITPCPNNEVKRAFLFSCYCGLRWCDVHQLQYKDIDFSSNRLTILQQKVQSHSKNAILHLNLNHTAIKLLQRHKGINEELVFGLPSYSYTL”, “not soluble”.
